In patent US20090098106:
Where a chain is given by its changes, count along the chain named.

Columns and labels:
[1] = biological target: T1, HC8 SS 243,250AA mutant, P25788
T1 chain: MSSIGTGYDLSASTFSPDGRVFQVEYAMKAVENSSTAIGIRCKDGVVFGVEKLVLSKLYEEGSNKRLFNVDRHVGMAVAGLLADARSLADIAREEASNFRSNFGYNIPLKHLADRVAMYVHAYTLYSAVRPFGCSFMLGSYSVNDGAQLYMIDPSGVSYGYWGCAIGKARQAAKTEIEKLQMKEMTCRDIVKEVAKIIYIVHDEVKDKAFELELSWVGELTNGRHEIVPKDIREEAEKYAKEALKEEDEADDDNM

[2] = biological target: T2, HC8 (α7) subunit of the human 20S proteasome, P25788
T2 chain: T1 chain with A243S, A250S

B1: NF-κB inducing kinase (NIK), human, full length (protein)
chain: MAVMEMACPGAPGSAVGQQKELPKPKEKTPPLGKKQSSVYKLEAVEKSPVFCGKWEILNDVITKGTAKEGSEAGPAAISIIAQAECENSQEFSPTFSERIFIAGSKQYSQSESLDQIPNNVAHATEGKMARVCWKGKRRSKARKKRKKKSSKSLAHAGVALAKPLPRTPEQESCTIPVQEDESPLGAPYVRNTPQFTKPLKEPGLGQLCFKQLGEGLRPALPRSELHKLISPLQCLNHVWKLHHPQDGGPLPLPTHPFPYSRLPHPFPFHPLQPWKPHPLESFLGKLACVDSQKPLPDPHLSKLACVDSPKPLPGPHLEPSCLSRGAHEKFSVEEYLVHALQGSVSSSQAHSLTSLAKTWAARGSRSREPSPKTEDNEGVLLTEKLKPVDYEYREEVHWATHQLRLGRGSFGEVHRMEDKQTGFQCAVKKVRLEVFRAEELMACAGLTSPRIVPLYGAVREGPWVNIFMELLEGGSLGQLVKEQGCLPEDRALYYLGQALEGLEYLHSRRILHGDVKADNVLLSSDGSHAALCDFGHAVCLQPDGLGKSLLTGDYIPGTETHMAPEVVLGRSCDAKVDVWSSCCMMLHMLNGCHPWTQFFRGPLCLKIASEPPPVREIPPSCAPLTAQAIQEGLRKEPIHRVSAAELGGKVNRALQQVGGLKSPWRGEYKEPRHPPPNQANYHQTLHAQPRELSPRAPGPRPAEETTGRAPKLQPPLPPEPPEPNKSPPLTLSKEESGMWEPLPLSSLEPAPARNPSSPERKATVPEQELQQLEIELFLNSLSQPFSLEEQEQILSCLSIDSLSLSDDSEKNPSKASQSSRDTLSSGVHSWSSQAEARSSSWNMVLARGRPTDTPSYFNGVKVQIQSLNGEHLHIREFHRVKVGDIATGISSQIPAAAFSLVTKDGQPVRYDMEVPDSGIDLQCTLAPDGSFAWSWRVKHGQLENRP
in vitro kinase assay (phosphorylation of HC8 in the immunoprecipitate) [1]: Replacement of two serine residues on HC8 (amino acids 243 and 250) by alanine completely abolished the NIK-induced phosphorylation of HC8 | in vitro kinase assay (phosphorylation of HC8 in the immunoprecipitate) [2]: HC8 was found to be a substrate for NIK phosphorylation in an in vitro kinase assay
